The results in this text go back to the supplement of paper PMC10567573.

B1: SOAT2 (parent)
chain: SLGKQKVFIIRKSLLDELMEVQHF
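Note: lentivirally expressed fusions sorted by FACS into six bins by GFP to DsRed ratio, PSI derived from sequencing read proportions per bin multiplied by bin number.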

The data set covers variants of B1. Put plainly: protein stability index of a GFP-peptide fusion (GPS, HEK-293T) (PSI 1-6); higher = more stable. As to conditions: c terminus: a fixed tail appended.
As for SLGKQKVFIIRKSLEDELMEVQHF [L15E], the protein stability index turned out to be 2.29.
As for SLGKQKVFIIRKSLGDELMEVQHF [L15G], the protein stability index came out at 2.5.
With SLGKQKVFIIRKSLTDELMEVQHF [L15T], the protein stability index turned out to be 1.54.
In the case of SLGKQKVFIIRKSLHDELMEVQHF [L15H], the protein stability index came out at 1.78.
The result for SLGKQKVFIIRKSLQDELMEVQHF [L15Q] reads 1.8; that for SLGKQKVFIIRKSLWDELMEVQHF [L15W], 2.68; that for SLGKQKVFIIRKSLMDELMEVQHF [L15M], 2.37.
For SLGKQKVFIIRKSLIDELMEVQHF [L15I], the protein stability index is 2.35.
As to SLGKQKVFIIRKSLVDELMEVQHF [L15V], the protein stability index is 1.78.
The result for SLGKQKVFIIRKSLSDELMEVQHF [L15S] reads 2.23.
The result for SLGKQKVFIIRKSLRDELMEVQHF [L15R] reads 2.41; that for SLGKQKVFIIRKSLADELMEVQHF [L15A], 1.6; that for SLGKQKVFIIRKSLNDELMEVQHF [L15N], 1.88.
As for SLGKQKVFIIRKSLPDELMEVQHF [L15P], the protein stability index was 1.56.
In the case of SLGKQKVFIIRKSLFDELMEVQHF [L15F], the protein stability index is 3.01.
For SLGKQKVFIIRKSLCDELMEVQHF [L15C], the protein stability index was found to be 2.08.
As for SLGKQKVFIIRKSLYDELMEVQHF [L15Y], the figure is 1.52.
As to SLGKQKVFIIRKSLDDELMEVQHF [L15D], the protein stability index was found to be 2.38.
The result for SLGKQKVFIIRKSLKDELMEVQHF [L15K] reads 3.07.
As for SLGKQKVFIIRKSLLDMLMEVQHF [E17M], the figure is 2.7.
As for SLGKQKVFIIRKSLLDGLMEVQHF [E17G], the figure is 2.81.
As to SLGKQKVFIIRKSLLDDLMEVQHF [E17D], the protein stability index was found to be 2.51.
SLGKQKVFIIRKSLLDLLMEVQHF [E17L]: the protein stability index was 2.79.
Consider SLGKQKVFIIRKSLLDKLMEVQHF [E17K], for which the protein stability index was 2.17.
For SLGKQKVFIIRKSLLDPLMEVQHF [E17P], the protein stability index was 2.21.
The result for SLGKQKVFIIRKSLLDILMEVQHF [E17I] reads 2.86; that for SLGKQKVFIIRKSLLDCLMEVQHF [E17C], 3.21; that for SLGKQKVFIIRKSLLDRLMEVQHF [E17R], 2.41.
With SLGKQKVFIIRKSLLDFLMEVQHF [E17F], the protein stability index worked out at 2.52.
For the variant SLGKQKVFIIRKSLLDNLMEVQHF [E17N], the protein stability index was determined as 2.79.
For the variant SLGKQKVFIIRKSLLDWLMEVQHF [E17W], the protein stability index was 3.08.
As for SLGKQKVFIIRKSLLDQLMEVQHF [E17Q], the figure is 3.16.
As for SLGKQKVFIIRKSLLDVLMEVQHF [E17V], the figure is 3.36; as for SLGKQKVFIIRKSLLDTLMEVQHF [E17T], 3.87.
In the case of SLGKQKVFIIRKSLLDHLMEVQHF [E17H], the protein stability index worked out at 4.16.
The result for SLGKQKVFIIRKSLLDSLMEVQHF [E17S] reads 3.09; that for SLGKQKVFIIRKSLLDALMEVQHF [E17A], 3.06.
The result for SLGKQKVFIIRKSLLDYLMEVQHF [E17Y] reads 1.85; that for SLGKQKVFIIRKSALDELMEVQHF [L14A], 2.72; that for SLGKQKVFIIRKSMLDELMEVQHF [L14M], 2.25.
Consider SLGKQKVFIIRKSILDELMEVQHF [L14I], for which the protein stability index was determined as 3.27.
Regarding SLGKQKVFIIRKSHLDELMEVQHF [L14H], the protein stability index was 2.86.
As for SLGKQKVFIIRKSTLDELMEVQHF [L14T], the figure is 2; as for SLGKQKVFIIRKSQLDELMEVQHF [L14Q], 1.64.
The result for SLGKQKVFIIRKSYLDELMEVQHF [L14Y] reads 2.03; that for SLGKQKVFIIRKSNLDELMEVQHF [L14N], 2.26; that for SLGKQKVFIIRKSSLDELMEVQHF [L14S], 3.11.
Turning to SLGKQKVFIIRKSGLDELMEVQHF [L14G], the protein stability index worked out at 2.2.
The result for SLGKQKVFIIRKSRLDELMEVQHF [L14R] reads 2.64; that for SLGKQKVFIIRKSCLDELMEVQHF [L14C], 1.85; that for SLGKQKVFIIRKSVLDELMEVQHF [L14V], 2.22.
The result for SLGKQKVFIIRKSKLDELMEVQHF [L14K] reads 1.69; that for SLGKQKVFIIRKSFLDELMEVQHF [L14F], 2.52; that for SLGKQKVFIIRKSPLDELMEVQHF [L14P], 2.43.
For the variant SLGKQKVFIIRKSDLDELMEVQHF [L14D], the protein stability index came out at 2.19.
The result for SLGKQKVFIIRKSELDELMEVQHF [L14E] reads 2.
The result for SLGKQKVFIIRKSLLDEKMEVQHF [L18K] reads 2.11; that for SLGKQKVFIIRKSLLDEMMEVQHF [L18M], 1.7.
As for SLGKQKVFIIRKSLLDEEMEVQHF [L18E], the figure is 1.8; as for SLGKQKVFIIRKSLLDEFMEVQHF [L18F], 1.41; as for SLGKQKVFIIRKSLLDEHMEVQHF [L18H], 1.85.
SLGKQKVFIIRKSLLDEIMEVQHF [L18I]: the protein stability index is 2.71.
With SLGKQKVFIIRKSLLDEGMEVQHF [L18G], the protein stability index is 2.62.
As to SLGKQKVFIIRKSLLDEDMEVQHF [L18D], the protein stability index was determined as 2.01.
Regarding SLGKQKVFIIRKSLLDECMEVQHF [L18C], the protein stability index is 1.95.
Turning to SLGKQKVFIIRKSLLDEAMEVQHF [L18A], the protein stability index was 1.46.
The result for SLGKQKVFIIRKNLLDELMEVQHF [S13N] reads 2.86; that for SLGKQKVFIIRKKLLDELMEVQHF [S13K], 1.67; that for SLGKQKVFIIRKMLLDELMEVQHF [S13M], 2.22.
The result for SLGKQKVFIIRKWLLDELMEVQHF [S13W] reads 1.73; that for SLGKQKVFIIRKRLLDELMEVQHF [S13R], 2.86; that for SLGKQKVFIIRKQLLDELMEVQHF [S13Q], 1.69.
On to SLGKQKVFIIRKVLLDELMEVQHF [S13V], for which the protein stability index was 1.88.
The result for SLGKQKVFIIRKPLLDELMEVQHF [S13P] reads 1.99; that for SLGKQKVFIIRKLLLDELMEVQHF [S13L], 2.24; that for SLGKQKVFIIRKYLLDELMEVQHF [S13Y], 2.52.
On to SLGKQKVFIIRKTLLDELMEVQHF [S13T], for which the protein stability index was determined as 2.4.
The result for SLGKQKVFIIRKSLLRELMEVQHF [D16R] reads 4.61; that for SLGKQKVFIIRKSLLLELMEVQHF [D16L], 3.27; that for SLGKQKVFIIRKSLLPELMEVQHF [D16P], 2.02.
The result for SLGKQKVFIIRKSLLWELMEVQHF [D16W] reads 3.25; that for SLGKQKVFIIRKSLLMELMEVQHF [D16M], 3.67; that for SLGKQKVFIIRKSLLEELMEVQHF [D16E], 2.39.
Take SLGKQKVFIIRKSLLQELMEVQHF [D16Q]: the protein stability index was determined as 2.44.
On to SLGKQKVFIIRKSLLHELMEVQHF [D16H], for which the protein stability index was found to be 2.86.
As for SLGKQKVFIIRKSLLCELMEVQHF [D16C], the figure is 2.63; as for SLGKQKVFIIRKSLLYELMEVQHF [D16Y], 3.13; as for SLGKQKVFIIRKSLLNELMEVQHF [D16N], 3.3.
In the case of SLGKQKVFIIRKSLLFELMEVQHF [D16F], the protein stability index turned out to be 2.19.
With SLGKQKVFIIRKSLLIELMEVQHF [D16I], the protein stability index was 2.98.
The result for SLGKQKVFIIRKSLLAELMEVQHF [D16A] reads 1.7; that for SLGKQKVFIIRKSLLTELMEVQHF [D16T], 2.14; that for SLGKQKVFIIRKSLLGELMEVQHF [D16G], 2.76.
The result for SLGKQKVFIIRKSLLSELMEVQHF [D16S] reads 2.09.
